From US9205132B2, “Method of lowering mortality” (CORTHERA, INC., priority 2008, dated 2015)
Marks after values point to notes of the source that are not given here.

Test system: patients with acute heart failure (AHF)
Test: Safety endpoints (adverse events, blood pressure, renal impairment, clinical laboratory), Pre-RELAX-AHF trial
Type: in vivo, human
Settings: for change from baseline in mean hematocrit at 48 hours: described as transient decrease; for Total number of SAEs: to Day 30
Description: Study Procedures. The study was approved by the relevant ethics committees, institutional review hoards and regulatory authorities, and conducted under the International Conference on Harmonization Good Clinical Practice guidelines. All patients provided informed written consent prior to participation. […] The placebo used for the study was the same solution as the diluent used to prepare the 100 μg/kg/day dose. The randomization ratio was 3:2:2:2:2, respectively, Relaxin (Corthera, San Mateo, Calif.) was manufactured using recombinant techniques and was identical to the naturally-occurring peptide hormone. By protocol, the study drug infusion was to be terminated if the patient's SBP was reduced to <100 mmHg or by >40 mmHg compared to baseline in two successive measurements, 15 minutes apart. Investigators were not prohibited from utilizing any standard medication, thought necessary to treat patients enrolled in the study, including additional vasodilators, following a 4-hour washout period during which time IV vasodilators, IV pure inotropes and meals were withheld, hemodynamic, renal, and clinical responses to 48 hours of study drug infusion were assessed.
Study Endpoints. […] 4.) Length of initial hospital stay.

Relaxin
Patients with any AE from Day 15 to Day 30, n (%) (10 mcg/kg/d IV 48 h): 4 (10.0%) n (%)
Patients with any SAEs to Day 30, n (%) (10 mcg/kg/d IV 48 h): 7 (17.5%) n (%)
Patients with any adverse events to Day 30, n (%) (10 mcg/kg/d IV 48 h): 32 (80.0%) n (%)
Protocol-specified study drug discontinuation due to blood pressure reduction (10 mcg/kg/d IV 48 h): 20.0%
Renal impairment: Patients with ≧0.3 mg/dL increase in creatinine at Day 5 (10 mcg/kg/d IV 48 h): 3 (7.9%) n (%)
Renal impairment: Patients with ≧0.3 mg/dL increase in creatinine at Day 5 and Day 14 (10 mcg/kg/d IV 48 h): 3 (7.5%) n (%)
Renal impairment: Patients with ≧25% increase in creatinine at Day 5 (10 mcg/kg/d IV 48 h): 4 (10.0%) n (%)
SAE to Day 30: Acute respiratory failure, n (%) (10 mcg/kg/d IV 48 h): 0 n (%)
SAE to Day 30: Bronchitis, n (%) (10 mcg/kg/d IV 48 h): 0 n (%)
SAE to Day 30: Cardiac failure, n (%) (10 mcg/kg/d IV 48 h): 2 (5.0%) n (%)
SAE to Day 30: Cerebrovascular accident, n (%) (10 mcg/kg/d IV 48 h): 0 n (%)
SAE to Day 30: Hypotension, n (%) (10 mcg/kg/d IV 48 h): 0 n (%)
SAE to Day 30: Noncardiac chest pain, n (%) (10 mcg/kg/d IV 48 h): 2 (5.0%) n (%)
SAE to Day 30: Pneumonia, n (%) (10 mcg/kg/d IV 48 h): 0 n (%)
SAE to Day 30: Renal failure, n (%) (10 mcg/kg/d IV 48 h): 0 n (%)
SAE to Day 30: Urinary retention, n (%) (10 mcg/kg/d IV 48 h): 0 n (%)
SAE to Day 30: Urinary tract infection, n (%) (10 mcg/kg/d IV 48 h): 0 n (%)
SAE to Day 30: Ventricular fibrillation, n (%) (10 mcg/kg/d IV 48 h): 1 (2.5%) n (%)
mean change in creatinine from baseline at Day 14 (10 mcg/kg/d IV 48 h): 0.07 ± 0.24 mg/dL
patients requiring treatment of blood pressure reduction (10 mcg/kg/d IV 48 h): None of the patients
proportion of patients at Day 14 with an increase in creatinine of 0.3 mg/dL or more (10 mcg/kg/d IV 48 h): 19.4%
change from baseline in mean hematocrit at 48 hours (10 mcg/kg/d IV 48 h): 0.57%
Patients with any AE from Day 15 to Day 30, n (%) (30 mcg/kg/d IV 48 h): 5 (11.9%) n (%)
Patients with any SAEs to Day 30, n (%) (30 mcg/kg/d IV 48 h): 7 (16.7%) n (%)
Patients with any adverse events to Day 30, n (%) (30 mcg/kg/d IV 48 h): 25 (59.5%) n (%)
Protocol-specified study drug discontinuation due to blood pressure reduction (30 mcg/kg/d IV 48 h): 9.5%
Renal impairment: Patients with ≧0.3 mg/dL increase in creatinine at Day 5 (30 mcg/kg/d IV 48 h): 7 (18.9%) n (%)
Renal impairment: Patients with ≧0.3 mg/dL increase in creatinine at Day 5 and Day 14 (30 mcg/kg/d IV 48 h): 3 (7.3%) n (%)
Renal impairment: Patients with ≧25% increase in creatinine at Day 5 (30 mcg/kg/d IV 48 h): 9 (22.0%) n (%)
SAE to Day 30: Acute respiratory failure, n (%) (30 mcg/kg/d IV 48 h): 0 n (%)
SAE to Day 30: Bronchitis, n (%) (30 mcg/kg/d IV 48 h): 1 (2.4%) n (%)
SAE to Day 30: Cardiac failure, n (%) (30 mcg/kg/d IV 48 h): 1 (2.4%) n (%)
SAE to Day 30: Cerebrovascular accident, n (%) (30 mcg/kg/d IV 48 h): 2 (4.8%) n (%)
SAE to Day 30: Hypotension, n (%) (30 mcg/kg/d IV 48 h): 0 n (%)
SAE to Day 30: Noncardiac chest pain, n (%) (30 mcg/kg/d IV 48 h): 0 n (%)
SAE to Day 30: Pneumonia, n (%) (30 mcg/kg/d IV 48 h): 3 (7.1%) n (%)
SAE to Day 30: Renal failure, n (%) (30 mcg/kg/d IV 48 h): 1 (2.4%) n (%)
SAE to Day 30: Urinary retention, n (%) (30 mcg/kg/d IV 48 h): 0 n (%)
SAE to Day 30: Urinary tract infection, n (%) (30 mcg/kg/d IV 48 h): 1 (2.4%) n (%)
SAE to Day 30: Ventricular fibrillation, n (%) (30 mcg/kg/d IV 48 h): 0 n (%)
mean change in creatinine from baseline at Day 14 (30 mcg/kg/d IV 48 h): 0.13 ± 0.49 mg/dL
mean decrease in SBP compared to placebo during infusion (30 mcg/kg/d IV 48 h): 3-4 mmHg
patients requiring treatment of blood pressure reduction (30 mcg/kg/d IV 48 h): None of the patients
proportion of patients at Day 14 with an increase in creatinine of 0.3 mg/dL or more (30 mcg/kg/d IV 48 h): 26.3%
change from baseline in mean hematocrit at 48 hours (30 mcg/kg/d IV 48 h): 1.45%
Patients with any AE from Day 15 to Day 30, n (%) (100 mcg/kg/d IV 48 h): 2 (5.3%) n (%)
Patients with any SAEs to Day 30, n (%) (100 mcg/kg/d IV 48 h): 3 (7.9%) n (%)
Patients with any adverse events to Day 30, n (%) (100 mcg/kg/d IV 48 h): 24 (63.2%) n (%)
Protocol-specified study drug discontinuation due to blood pressure reduction (100 mcg/kg/d IV 48 h): 7.9%
Renal impairment: Patients with ≧0.3 mg/dL increase in creatinine at Day 5 (100 mcg/kg/d IV 48 h): 9 (26.5%) n (%)
Renal impairment: Patients with ≧0.3 mg/dL increase in creatinine at Day 5 and Day 14 (100 mcg/kg/d IV 48 h): 4 (10.8%) n (%)
Renal impairment: Patients with ≧25% increase in creatinine at Day 5 (100 mcg/kg/d IV 48 h): 11 (29.7%) * n (%)
SAE to Day 30: Acute respiratory failure, n (%) (100 mcg/kg/d IV 48 h): 1 (2.6%) n (%)
SAE to Day 30: Bronchitis, n (%) (100 mcg/kg/d IV 48 h): 0 n (%)
SAE to Day 30: Cardiac failure, n (%) (100 mcg/kg/d IV 48 h): 0 n (%)
SAE to Day 30: Cerebrovascular accident, n (%) (100 mcg/kg/d IV 48 h): 0 n (%)
SAE to Day 30: Hypotension, n (%) (100 mcg/kg/d IV 48 h): 0 n (%)
SAE to Day 30: Noncardiac chest pain, n (%) (100 mcg/kg/d IV 48 h): 0 n (%)
SAE to Day 30: Pneumonia, n (%) (100 mcg/kg/d IV 48 h): 0 n (%)
SAE to Day 30: Renal failure, n (%) (100 mcg/kg/d IV 48 h): 0 n (%)
SAE to Day 30: Urinary retention, n (%) (100 mcg/kg/d IV 48 h): 2 (5.3%) n (%)
SAE to Day 30: Urinary tract infection, n (%) (100 mcg/kg/d IV 48 h): 0 n (%)
SAE to Day 30: Ventricular fibrillation, n (%) (100 mcg/kg/d IV 48 h): 0 n (%)
mean change in creatinine from baseline at Day 14 (100 mcg/kg/d IV 48 h): 0.08 ± 0.39 mg/dL
mean decrease in SBP compared to placebo during infusion (100 mcg/kg/d IV 48 h): 3-4 mmHg
proportion of patients at Day 14 with an increase in creatinine of 0.3 mg/dL or more (100 mcg/kg/d IV 48 h): 24.2%
change from baseline in mean hematocrit at 48 hours (100 mcg/kg/d IV 48 h): 0.25%
Patients with any AE from Day 15 to Day 30, n (%) (250 mcg/kg/d IV 48 h): 3 (6.1%) n (%)
Patients with any SAEs to Day 30, n (%) (250 mcg/kg/d IV 48 h): 8 (16.3%) n (%)
Patients with any adverse events to Day 30, n (%) (250 mcg/kg/d IV 48 h): 25 (51.0%) n (%)
Protocol-specified study drug discontinuation due to blood pressure reduction (250 mcg/kg/d IV 48 h): 16.3%
Renal impairment: Patients with ≧0.3 mg/dL increase in creatinine at Day 5 (250 mcg/kg/d IV 48 h): 10 (22.7%) n (%)
Renal impairment: Patients with ≧0.3 mg/dL increase in creatinine at Day 5 and Day 14 (250 mcg/kg/d IV 48 h): 7 (15.2%) + n (%)
Renal impairment: Patients with ≧25% increase in creatinine at Day 5 (250 mcg/kg/d IV 48 h): 12 (25.5%) n (%)
SAE to Day 30: Acute respiratory failure, n (%) (250 mcg/kg/d IV 48 h): 0 n (%)
SAE to Day 30: Bronchitis, n (%) (250 mcg/kg/d IV 48 h): 1 (2.0%) n (%)
SAE to Day 30: Cardiac failure, n (%) (250 mcg/kg/d IV 48 h): 2 (6.1%) n (%)
SAE to Day 30: Cerebrovascular accident, n (%) (250 mcg/kg/d IV 48 h): 0 n (%)
SAE to Day 30: Hypotension, n (%) (250 mcg/kg/d IV 48 h): 2 (4.1%) n (%)
SAE to Day 30: Noncardiac chest pain, n (%) (250 mcg/kg/d IV 48 h): 1 (2.0%) n (%)
SAE to Day 30: Pneumonia, n (%) (250 mcg/kg/d IV 48 h): 0 n (%)
SAE to Day 30: Renal failure, n (%) (250 mcg/kg/d IV 48 h): 0 n (%)
SAE to Day 30: Urinary retention, n (%) (250 mcg/kg/d IV 48 h): 0 n (%)
SAE to Day 30: Urinary tract infection, n (%) (250 mcg/kg/d IV 48 h): 1 (2.0%) n (%)
SAE to Day 30: Ventricular fibrillation, n (%) (250 mcg/kg/d IV 48 h): 0 n (%)
mean change in creatinine from baseline at Day 14 (250 mcg/kg/d IV 48 h): 0.10 ± 0.39 mg/dL
proportion of patients at Day 14 with an increase in creatinine of 0.3 mg/dL or more (250 mcg/kg/d IV 48 h): 37.2%
change from baseline in mean hematocrit at 48 hours (250 mcg/kg/d IV 48 h): 0.64%
renal toxicity (AHF and/or acute vascular failure patients): low to no renal toxicity
safety and tolerability (AHF patients, all doses): no safety or tolerability issues
hypotension in patients with baseline SBP below the median (FIGS. 22A and 22B): does not cause deleterious hypotension
trough SBP (all cases with blood pressure reduction): ≥ 80 mmHg
mean change in pulse from baseline through day 14 (all relaxin groups vs placebo, FIG. 20): not chronotropic
average decrease in systolic blood pressure over all time points during infusion vs placebo (all relaxin groups, FIG. 21): did not differ
patients who received intravenous fluids for hypotension (four relaxin-treated groups together (5 patients)): 3.0%
patients with SBP reductions in whom SBP stabilized or rose with no therapy after discontinuation of study drug (relaxin-treated patients, all doses): 18 of 23
Total number of SAEs (10 mcg/kg/d IV 48 h): 8
Total number of SAEs (30 mcg/kg/d IV 48 h): 12
Total number of SAEs (100 mcg/kg/d IV 48 h): 3
Total number of SAEs (250 mcg/kg/d IV 48 h): 11
